# In the supplement of paper PMC9170038:
# Tests used:
# MS2 coat protein [1] = assay: apparent KD of MS2 coat protein, switch ON state; designed switch direction (-1 OFF switch, 1 ON switch): -1; higher = weaker reporter binding; details: FMN input: 0 or 200 uM; Eterna round: R93 (includes R88 designs)
# In short: (§1)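 SNAP-549-labelled MS2 coat protein was titrated onto designed RNA switches that had been transcribed on-chip from Illumina sequencing clusters. Amounts doubled from 0.7 or 1.5 nM to 3 µM in 100 mM Tris-HCl pH 7.5, 80 mM KCl, 4 mM MgCl2, with constant ligand or without. Apparent KD is the median per design of normalised cluster binding-curve fits.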
# MS2 coat protein [2] = assay: apparent KD of MS2 coat protein, switch OFF state (with FMN for OFF switches, without FMN for ON switches); designed switch direction (-1 OFF switch, 1 ON switch): -1; higher = weaker reporter binding; details: FMN input: 0 or 200 uM; Eterna round: R93 (includes R88 designs)
# In short: as §1
Sequence,apparent KD of MS2 coat protein (MS2 coat protein [1]),apparent KD of MS2 coat protein (MS2 coat protein [2])
AUCUAGUCAGGAUAUGACUACAUAAAAAAUAAAAAAUGUAGUCAGAAGGGACAUGAGGAUCACCCAUGUACUAA [Mat - Exclusion 4 - Eli mod - D95],26.3 nM,29.3 nM
AAUAAAGGAGGAUAUACUAAAGAAAUGAAAAGAAAUAAAGAACAUGAGGAUCACCCAUGUAGAAGGCCUAAUAA [Yaqub-Har],31.3 nM,22.8 nM
AAGAAGUGAGGAUAUAGUUGCACUAGCUAAUGCUAGUGCAACUAGAAGGCACAUGAGGAUCACCCAUGUAAAAG [Meechl Ex4 2],40.6 nM,46.7 nM
CCCAUGUCAGGAUAUCAGUAGUAAAAAAAAAAAAUUACUACUGAGAAGGGACAUGAGGAUCACCCAUGUUCCAA [EX4 318: Super Stable 18],58.3 nM,53 nM
AAGAGGUGAGGAUAUCGAAGAAGAAGAAGAAGAAGAAGAAACGAGAAGGCACAUGAGGAUCACCCAUGUAAGAA [Exclusion 4],23.4 nM,18.8 nM
AAAAAACAUGAGGAUCACCCAUGUAAGGAUAUCUAAAAUAAAAGAAAAAUAAAGAAAAGGAGAAGGUACAAGGA [JL wbt mod 25],13.8 nM,32.6 nM
GAAUGUCUAGGAUAUACAUGAGGAUCACCCAUGUGUAAAAAUAAAUACACAAAAGAAAGUAGAAGGAGACAAAG [Mat - Exclusion 3 - Mayanna mod - D122],28.5 nM,46.5 nM
CUCUUGUGAGGAUAUCUAAGAAAAGAAAAGAAAGAAAAGAAAGAGAAGGCACAUGAGGAUCACCCAUGUAAGAA [EteRNA is fun!],35.7 nM,84.6 nM
UAUACGUGAGGAUAUGCGAAUAACACGUUAGACAAAUAGACGCAGAAGGCACAUGAGGAUCACCCAUGUGAACC [JR_Exc004_Sub316],18.1 nM,17 nM
AUAAUACAUGAGGAUCACCCAUGUCAGGAUAUGCUAAAAUUAAAAUUAAAUCAAAAAUGUAGAAGGGACUAAAU [Exclusion Z3],49.8 nM,42.9 nM
ACAAAUGUAGGAUAUACAUGAGGAUCACCCAUGUGGCAGAAACAGCAAACAAGACGAAGUAGAAGGACAACGAC [JR_Exc003-Sub902],29.1 nM,28.6 nM
AACAGUACAGGAUAUACAUGAGGAUCACCCAUGUAAAGGGAAUAAAACAAAAAUAAAUGUAGAAGGGUACUGGA [Moding Maslow revisited (73) 21],69.3 nM,129 nM
AAUAAGUGAGGAUAUGUAAAUAGUAGAUAAGAUUCCCUAAAACAGAAGGCACAUGAGGAUCACCCAUGUAAAUA [JR_Exc004_Sub007],25.9 nM,19.7 nM
GGUUGGCGAGGAUAUACAUGAGGAUCACCCAUGUGAGAGAAAAAAGUGAGAAAGCAAAGUAGAAGGCGCUGACG [salish99-ex3-27],51.4 nM,321 nM
CCUGUGUGAGGAUAUGGUAAAAAAAAAAAAAAAAAGCUCCUCCAGAAGGCACAUGAGGAUCACCCAUGUCGUGG [Jolly's Folly 15 - Jieux - Exclusion 4],18.9 nM,38.2 nM
UAAACCCUAGGAUAUACAUGAGGAUCACCCAUGUUUGUCGAAGAACGAACAGUCCUCAGUAGAAGGAGGACGAA [Geriza],27.4 nM,24.3 nM
"AAAAAGGGAGGAUAUACAUGAGGAUCACCCAUGUAUCAGACGAAAAAGAGUCUGAAAUGUAGAAGGCCCAAAAA [65%, Moding Exclusion3-cac2, 2]",20.7 nM,35.8 nM
AAAAAACAUGAGGAUCACCCAUGUCAGGAUAUGCCAACCUAAAAAAAAAAAAAAAAACGUAGAAGGGACAAAAA [Bilbo Confounded 2 - Jieux - Exclusion 1],28.7 nM,23.5 nM
AAGAGGUCAGGAUAUGCCCACCAGGAAAAACGUCCAGGUGGGCAGAAGGGACAUGAGGAUCACCCAUGUAAAGA [Opal 41],44.8 nM,114 nM
"AAAAAACAUGAGGAUCACCCAUGUAAGGAUAUGCUGAAAAAACACUGGAAACAGUGCAGCAGAAGGUACAAAAA [66%, Wbt, 35]",21.5 nM,27.2 nM

Sequence,apparent KD of MS2 coat protein (MS2 coat protein [1]),apparent KD of MS2 coat protein (MS2 coat protein [2])
AGUCUGAGAGGAUAUACAUGAAAAAAAAAAGUAAGAUCCCUACAUGAGGAUCACCCAUGUAGAAGGCUCUGACA [Ex2 Design 145: Sub-opt 9],31.4 nM,29.4 nM
AACGGGCUAGGAUAUACACAAGCCUCAUAACAAAUAAACAAACAUGAGGAUCACCCAUGUAGAAGGAGCGCAAA [Quraaon],33 nM,72.5 nM
AAGUACUCAGGAUAUACAUGAGGAUCACCCAUGUGAAAAAAGCGUAAAAAACGCACAUGUAGAAGGGAGUACAA [JL In thr Red Again],122 nM,333 nM
AAGAGUAGAGGAUAUACAUGAGGAUCACCCAUGUAAUCCGGAUAAGGAAGCAUGUCGUGUAGAAGGCUGCAUGA [MOD 3 of Nando (MS2 Riboswitches- Exclusion 3)],15.5 nM,14.1 nM
GUGGAACAUGAGGAUCACCCAUGUGAGGAUAUAGGUUUUUGGGAAAAACUAGGAGAAACUAGAAGGCGCAAGAA [Exclusion 1.1],26.2 nM,22 nM
AAUAAGACAGGAUAUACUAAAGAAAUGAAAAGAAAUAAAGAACAUGAGGAUCACCCAUGUAGAAGGGUCAAUAA ['Apepi],50.3 nM,32.4 nM
AUAAAGUCAGGAUAUGUAAAAAUAACGAAAGUUAUAAAUAAACAGAAGGGACAUGAGGAUCACCCAUGUACAAU [Opal 15],25.4 nM,21.2 nM
"AAAAAGAGAGGAUAUACAUGAGGAUCACCCAUGUAACAUUAAAUAAAUAAAAUAAAGUGUAGAAGGCUCAAAAA [65%, Moding Exclusion3-cac2, 24]",27.9 nM,34.3 nM
GAAGAACAUGAGGAUCACCCAUGUCAGGAUAUGAAUAACGGAAUAAUACGUUAUGGAAUCAGAAGGGACAAGAA [Ex 1 May 52],48.9 nM,59.4 nM
AAAAAACAUGAGGAUCACCCAUGUGAGGAUAUCUGUAUUCAAUCCUCGGAUUGAAUACAGAGAAGGCACAUGAA [Ex1: 611],34 nM,330 nM
AAAUAGUUAGGAUAUACAUGAGGAUCACCCAUGUGGACUUAUGGAGAAUAGUCUAAUGGUAGAAGGGACUAAAA [EX2 Malc#24],69.8 nM,45.8 nM
AGUAUGCGAGGAUAUACAUGAGGAUCACCCAUGUGAGAGAUAAAAGUGAGAAAGAAAAGUAGAAGGCGCGUACA [JL Lego Mod 21],50.7 nM,326 nM
CUCAAGUUAGGAUAUUCAAGAAAAGAAGAGAAAGAAAAGAAGAAGAAGGAACAUGAGGAUCACCCAUGUAAGAA [EteRNA is fun!],53.8 nM,26 nM
AACUGACAUGAGGAUCACCCAUGUCAGGAUAUGACAUCGAAAAAAAAAAAAAUCGUUGUCAGAAGGGACAUGGG [Design 73: Sub-opt QB],11.9 nM,9.44 nM
AAGAACAGAGGAUAUGCUAAAGAAAUAAAAAUAAAUAAAGAACAUGAGGAUCACCCAUGUAGAAGGCUGAAGAA [Seven kings],28.3 nM,28 nM
AACAGUACAGGAUAUACAUGAGGAUCACCCAUGUGAGAAUUAAGCAGCGUAACACACAGUAGAAGGGUAAUGGA [Ruby 20],46.4 nM,40.7 nM
AAGAAGUGAGGAUAUACGCGAACAAAAAAAAAAAAGAAAGCGUAGAAGGCACAUGAGGAUCACCCAUGUCCAAA,27.7 nM,34.9 nM
GCAAAGUGAGGAUAUACGCGAACAAUAAAAAUAAAGAAAGCGUAGAAGGCACAUGAGGAUCACCCAUGUCCAGC [Mat - Exaclusion 4 - Eli mod - D78],23.5 nM,25.9 nM
AACAGGACAGGAUAUACAUGAGGAUCACCCAUGUGAAGAUUAAGAAGAAACCCACAAAGUAGAAGGGUCCUGGA [Ruby 93],25 nM,51 nM
